Source: patent US20250361317A1 (Janssen / Centocor, published 2025)

Experiments:
[1] = molecular target: T1, human EMR2 (ADGRE2, CD312) on cells (human, UniProt Q9UHX3 24-823); assay: flow cytometry, OCI-AML5 cells, 1 hour at 37 °C; mean ± SEM
T1 construct: also called huEMR2 full length; Adhesion G protein-coupled receptor E2
T1 sequence: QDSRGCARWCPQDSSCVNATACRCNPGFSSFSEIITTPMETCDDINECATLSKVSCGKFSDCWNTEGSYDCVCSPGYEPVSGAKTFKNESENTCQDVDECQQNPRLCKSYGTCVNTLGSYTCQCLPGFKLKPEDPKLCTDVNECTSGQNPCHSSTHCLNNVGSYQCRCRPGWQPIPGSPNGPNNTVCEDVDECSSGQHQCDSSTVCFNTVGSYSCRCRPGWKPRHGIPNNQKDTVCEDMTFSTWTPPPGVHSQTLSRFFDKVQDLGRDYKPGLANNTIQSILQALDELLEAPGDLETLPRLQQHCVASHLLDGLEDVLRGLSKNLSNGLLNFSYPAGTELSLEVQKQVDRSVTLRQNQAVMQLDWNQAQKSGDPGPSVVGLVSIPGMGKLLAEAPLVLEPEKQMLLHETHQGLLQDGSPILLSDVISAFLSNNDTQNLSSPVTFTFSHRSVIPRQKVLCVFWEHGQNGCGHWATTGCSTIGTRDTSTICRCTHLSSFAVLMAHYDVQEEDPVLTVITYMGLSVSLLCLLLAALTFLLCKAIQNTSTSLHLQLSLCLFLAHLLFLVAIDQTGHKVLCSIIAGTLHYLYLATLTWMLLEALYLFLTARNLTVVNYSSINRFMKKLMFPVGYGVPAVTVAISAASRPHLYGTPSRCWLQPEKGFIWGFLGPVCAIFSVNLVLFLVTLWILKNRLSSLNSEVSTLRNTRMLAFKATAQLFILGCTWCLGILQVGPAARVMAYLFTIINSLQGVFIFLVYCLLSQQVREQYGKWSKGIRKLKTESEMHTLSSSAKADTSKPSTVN
Description: (§1) After secondary detection with AF647-labeled material, the MFI signal was analyzed to generate an EC50 value. Curves are representative of 3 independent experiments.

FcRn (human) = molecular target: T2, FcRn (human) (human, UniProt P55899 24-297; P61769 21-119); assay: FcRn binding (human, pH 6)
T2 construct: also called neonatal Fc receptor

[2] = molecular target: T3, EMR2W4, huEMR2 GAIN domain + GPS, D261-T540, with C-terminal Avi/6x His tag (human); assay: SPR, row 'SPR (KD) / EMR2' of the Forced Degradation table; first sample batch (in PBS); stress condition of the KD and EMR2 construct not named on the sheet
T3 construct: also called Human EMR2 GAIN domain protein
T3 chain: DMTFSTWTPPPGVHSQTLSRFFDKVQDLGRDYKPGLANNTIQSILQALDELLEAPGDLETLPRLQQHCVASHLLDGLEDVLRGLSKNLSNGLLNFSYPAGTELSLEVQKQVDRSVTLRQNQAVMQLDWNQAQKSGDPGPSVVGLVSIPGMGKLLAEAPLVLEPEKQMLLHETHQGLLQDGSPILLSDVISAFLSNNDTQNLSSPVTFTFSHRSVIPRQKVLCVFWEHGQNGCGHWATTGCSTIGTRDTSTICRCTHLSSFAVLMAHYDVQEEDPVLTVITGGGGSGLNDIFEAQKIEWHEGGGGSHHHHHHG

[3] = molecular target: T1, human EMR2 (ADGRE2, CD312) on cells; assay: flow cytometry, median AF647 of live cells, OCI-AML5 WT cells, 1 hour at 37 C
[4] = molecular target: T1, human EMR2 (ADGRE2, CD312) on cells; assay: flow cytometry, MOLM-13 cells, 1 hour at 37 °C; mean ± SEM
Description: as §1

[5] = molecular target: T3, EMR2W4, huEMR2 GAIN domain + GPS, …; assay: SPR, EMR2 arm, forced degradation study: Physiological
[6] = molecular target: T3, EMR2W4, huEMR2 GAIN domain + GPS, …; assay: SPR, EMR2 arm, forced degradation study: chemical oxidation
[7] = molecular target: T1, human EMR2 (ADGRE2, CD312) on cells; assay: cell-based or functional assay
[8] = molecular target: T4, T-cell receptor with TRBV19 (Vβ17) beta chain on human T cells (human); assay: cell-based or functional assay
[9] = molecular target: T4, T-cell receptor with TRBV19 (Vβ17) beta …; assay: flow cytometry, percent TRBV19+ of live pan-T cells, Donor 6, 1 hour, 37 °C
[10] = molecular target: T3, EMR2W4, huEMR2 GAIN domain + GPS, …; assay: SPR, EMR2 arm, forced degradation study: pH 8.5
[11] = molecular target: T1, human EMR2 (ADGRE2, CD312) on cells; assay: flow cytometry, OCI-AML3 cells, 1 hour at 37 °C; mean ± SEM
Description: as §1

FcRn (cyno) = molecular target: T5, FcRn (cyno) (cynomolgus monkey, UniProt Q8SPV9 24-297; Q8SPW0 21-119); assay: FcRn binding (cyno, pH 6)
T5 construct: also called neonatal Fc receptor, cynomolgus monkey

[12] = molecular target: T3, EMR2W4, huEMR2 GAIN domain + GPS, …; assay: SPR, EMR2 arm, forced degradation study: pH 5.0
[13] = molecular target: T4, T-cell receptor with TRBV19 (Vβ17) beta …; assay: flow cytometry, percent TRBV19+ of live pan-T cells, Donor 5, 1 hour, 37 °C
[14] = molecular target: T3, EMR2W4, huEMR2 GAIN domain + GPS, …; assay: SPR, EMR2 arm, forced degradation study: Release

T4 sequence (A0A075B6N1 22-114): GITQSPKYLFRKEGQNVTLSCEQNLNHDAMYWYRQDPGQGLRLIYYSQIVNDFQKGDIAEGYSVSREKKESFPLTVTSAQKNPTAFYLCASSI
T5 sequence (Q8SPV9 24-297 limits assumed, chain 1 of 2): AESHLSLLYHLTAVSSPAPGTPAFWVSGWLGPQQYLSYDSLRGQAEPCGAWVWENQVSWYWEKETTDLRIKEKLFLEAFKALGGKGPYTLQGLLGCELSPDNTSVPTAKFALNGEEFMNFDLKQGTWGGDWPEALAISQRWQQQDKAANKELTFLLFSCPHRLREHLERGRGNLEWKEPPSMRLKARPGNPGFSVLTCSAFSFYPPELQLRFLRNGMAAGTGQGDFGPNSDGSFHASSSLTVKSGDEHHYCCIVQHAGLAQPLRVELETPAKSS
T5 sequence (Q8SPW0 21-119 limits assumed, chain 2 of 2): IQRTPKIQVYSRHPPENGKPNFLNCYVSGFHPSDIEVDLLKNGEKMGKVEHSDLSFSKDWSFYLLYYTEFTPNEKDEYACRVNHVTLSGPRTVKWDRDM
T2 sequence (P55899 24-297 limits assumed, chain 1 of 2): as the sequence (Q8SPV9 24-297 limits assumed, chain 1 of 2) above, with D39N, Q44E, S99G, G189S, N190S, M217L, T269S counted along it
T2 sequence (P61769 21-119 limits assumed, chain 2 of 2): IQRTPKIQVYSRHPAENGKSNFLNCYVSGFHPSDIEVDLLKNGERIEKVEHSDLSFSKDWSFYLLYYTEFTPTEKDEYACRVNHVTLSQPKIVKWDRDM

B1: EMVBB8 (EMR2 x TRBV19 bispecific antibody) (bispecific antibody, human IgG1, kappa, L234A L235A)
heavy 1: DIQMTQSPSSLSASVGDRVTITCRSSQSLVHSNRNTYLHWYQQKPGCAPKLLIYKVSNRFSGVPSRFSGSGSGTDFTLTISSLQPEDFATYYCSQSTHVPFTFGQGTKLEIKGGGSGGSGGCPPCGGSGGQVQLQESGPGLVKPSETLSLTCTVSGYSITSGYFWNWIRQFPGKGLEWMGYISYDGSNNYNPSLKSRITISRDTSKNQFSLKLSSVTAADTAVYYCASPSPGTGYAVDYWGCGTTVTVSSEPKSSDKTHTCPPCPAPEAAGGPSVFLFPPKPKDTLMISRTPEVTCVVVSVSHEDPEVKFNWYVDGVEVHNAKTKPREEQYNSTYRVVSVLTVLHQDWLNGKEYKCKVSNKALPAPIEKTISKAKGQPREPQVYTLPPSREEMTKNQVSLWCLVKGFYPSDIAVEWESNGQPENNYKTTPPVLDSDGSFFLYSKLTVDKSRWQQGNVFSCSVMHEALHNHYTQKSLSLSPGK
heavy 2: EVQLVESGGGLVQPGGSLRLSCTASGFTFSRYSMNWVRQAPGEGLEWVSYISSSSNTIYYADSVKGRFTISRDNAKNSLYLQMNSLRDEDTAVYYCARDQGTPFDYWGQGTLVTVSSASTKGPSVFPLAPSSKSTSGGTAALGCLVKDYFPEPVTVSWNSGALTSGVHTFPAVLQSSGLYSLSSVVTVPSSSLGTQTYICNVNHKPSNTKVDKKVEPKSCDKTHTCPPCPAPEAAGGPSVFLFPPKPKDTLMISRTPEVTCVVVSVSHEDPEVKFNWYVDGVEVHNAKTKPREEQYNSTYRVVSVLTVLHQDWLNGKEYKCKVSNKALPAPIEKTISKAKGQPREPQVYTLPPSREEMTKNQVSLSCAVKGFYPSDIAVEWESNGQPENNYKTTPPVLDSDGSFFLVSKLTVDKSRWQQGNVFSCSVMHEALHNRFTQKSLSLSPGK
light: EIVLTQSPSSVSASIGDRVTITCRASQDISSWLGWYQQKPGKAPKLLIYAAISLQSGVPSRFSGSESGTDFTLTISSLQPEDFATYYCHQANSFPLTFGGGTKVEIKRTVAAPSVFIFPPSDEQLKSGTASVVCLLNNFYPREAKVQWKVDNALQSGNSQESVTEQDSKDSTYSLSSTLTLSKADYEKHKVYACEVTHQGLSSPVTKSFNRGEC
notes: also called the bispecific antibody
Q: What does the source list for B1?
A: EC50 [1]: 27 nM; Kd (FcRn (human)): 306 nM; Kd [2]: 0.154 nM; EC50 [3]: 13.4 nM; Max (MFI) [3]: 260000 MFI; EC50 [4]: 53 nM; Kd [5]: 0.21 nM; Kd [6]: 0.2 nM; Cytotoxicity, EC50 (nM), 24 hours, PBMC + OCI-AML3 (Table 10) [7]: 0.02 nM; Cytotoxicity, EC50 (nM), 48 hours, PBMC + OCI-AML3 (Table 10) [7]: 0.01 nM; Cytotoxicity, EC50 (nM), 72 hours, PBMC + OCI-AML3 (Table 10) [7]: 0.004 nM; Cytotoxicity, EC50 (nM), 96 hours, PBMC + OCI-AML3 (Table 10) [7]: 0.003 nM; Cytotoxicity, EC50 (nM), 120 hours, PBMC + OCI-AML3 (Table 10) [7]: 0.004 nM; Pan-T-cell activation (CD25), EC50 (nM), 24 hours, PBMC + OCI-AML3 (Table 10) [8]: 0.02 nM; Pan-T-cell activation (CD25), EC50 (nM), 48 hours, PBMC + OCI-AML3 (Table 10) [8]: 0.01 nM; Pan-T-cell activation (CD25), EC50 (nM), 72 hours, PBMC + OCI-AML3 (Table 10) [8]: 0.01 nM; Pan-T-cell activation (CD25), EC50 (nM), 96 hours, PBMC + OCI-AML3 (Table 10) [8]: 0.01 nM; Pan-T-cell activation (CD25), EC50 (nM), 120 hours, PBMC + OCI-AML3 (Table 10) [8]: 0.01 nM; EC50 [9]: 4.9 nM; Kd [10]: 0.25 nM; EC50 [11]: 48 nM; Kd (FcRn (cyno)): 454 nM; Kd [12]: 0.2 nM; EC50 [13]: 9.5 nM; Kd [14]: 0.19 nM
